Test results from the supplement of paper PMC10126150.
± gives the standard deviation of the averaged measurements.

tested on: ATP; experiment: switch fluorescence ratio, 500 uM ATP over buffer (Cy3 cluster intensity, sum of 5 cycles each) (fold (ratio)); higher = stronger signal-on switching upon ATP binding; sequences stand for … in TCGTCGGCAGCGTCAGATGTGTATAAGAGACAGTTTTTTTTTTTTTTTTTTTTTTTTT…TC; conditions: aptamer strand: ATP DNA aptamer (quencher-CACCTGGGGGAGTATTGCGGAGGAAGG + anchor), 100 nM annealed; ATP concentration: 500 uM
Summary of the method: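 Between each of five buffer/ATP cycles, the flow-cell was stripped with NaOH and re-annealed. Each cycle imaged Cy3-labelled switching-strand clusters, annealed to 100 nM quencher-labelled ATP aptamer on a modified Illumina MiSeq flow-cell, first in selection buffer and then after 15 min with 500 uM ATP at 22 °C. The fluorescence ratio is summed target-cycle over summed buffer-cycle Cy3 intensity per cluster, averaged per switch-domain sequence, with clusters outside 100-1000 RFU excluded.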
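Further: ATP exposure 15 min at 22 °C before imaging.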

Sequence	switch fluorescence ratio
CTTGTCGAGG	0.986 ± 0.042
TTTCAAAACA	1.0474 ± 0.00015
TATTGGGTAA	1.11 ± 0.14
TTGGTGCGGG	0.98 ± 0.044
TAGTGAATTT	1 ± 0.07
CTAGGTGTG	1.01 ± 0.082
ACTTGTAGAT	1.009 ± 0.0059
TACTGAATGT	1.02 ± 0.013
AGTTATGTAG	1.01 ± 0.052
AGGGTTGTAT	1.001 ± 0.0037
CCTATTACA	1.03 ± 0.026
CTGGATTAAT	1.02 ± 0.04
TGTGATGAGT	0.992 ± 0.024
AGGCAGATGG	0.998 ± 0.021
TTCGGAGGCT	1.23 ± 0.3
TTAGAGTTGT	0.999 ± 0.034
CATGGTGTGT	1.01 ± 0.011
GGTATGATGG	0.991 ± 0.01
AATGGGGCAA	1.058 ± 0.0077
CATGAGGGAG	0.996 ± 0.019
TAAAAAGA	0.9496 ± 0.005
GTTGGGCCGT	0.987 ± 0.038
TATTGGGAAA	1.06 ± 0.045

Sequence	switch fluorescence ratio
AGGTATTCAG	1.01 ± 0.033
CCGGTTGTGA	1.177 ± 0.0083
GGGTTGTTGT	0.982 ± 0.014
TTACTTTGGC	1 ± 0.022
CTGGATTTCA	0.99 ± 0.027
TTGCGTTATC	1.2 ± 0.27
GGCCACAGCA	1.07 ± 0.016
CCAGGTGGCA	2.83 ± 0.24
TGAGAATTTG	0.976 ± 0.048
TGGGATTGTT	1 ± 0.035
GCCGCCGTGT	0.983 ± 0.031
TCGGTTGCTA	1.05 ± 0.023
CAGGGCGGGA	0.936 ± 0.028
GATCTACCCA	1.028 ± 0.0089
TTTTGTAACG	1 ± 0.034
TAGCCTATTT	0.975 ± 0.038
ACCAATCCTG	1 ± 0.013
TGTGTCATGT	0.989 ± 0.013
TGACAACAGC	1.049 ± 0.0091
CTAATAGTTT	1 ± 0.032
TGCGAGTGCT	0.976 ± 0.037
GTCGGATAGT	0.996 ± 0.013
GGCGCTCAGT	1.02 ± 0.02

Sequence	switch fluorescence ratio
GGGAAGATTC	1.01 ± 0.04
CGTTAGGCGC	0.985 ± 0.013
GGGGTTTGTC	0.95 ± 0.049
CGGGGGGTAA	1.01 ± 0.029
AGCTAGCGAT	1.02 ± 0.034
TAGTCATTGA	1.012 ± 0.0021
GACAACTTTT	0.991 ± 0.016
CGATGTATTT	1.01 ± 0.048
GACCTATTCG	1.01 ± 0.018
AAGTTTATTC	0.967 ± 0.017
CGGAGTAACG	1.04 ± 0.03
ACGATGGGAG	1.02 ± 0.021
TAAGGCGGTT	0.984 ± 0.021
CCTTGCGGGG	1.06 ± 0.012
TGTAGGGGAA	0.996 ± 0.011
ATTTGGGTGT	1.05 ± 0.02
TAGAGAAAAT	0.964 ± 0.053
TCAAGGGGAA	1 ± 0.019
TGCAGTCAAG	1.01 ± 0.016
TGGATTGTCC	1.03 ± 0.012
GTGGGCGTTT	1 ± 0.017
TATTTTAGGA	0.9743 ± 0.003
CACAGCAGCG	1.048 ± 0.0029

Sequence	switch fluorescence ratio
GGGGGGTATC	1.01 ± 0.03
TTTAAGGGGT	0.991 ± 0.051
AATGGGCGAG	1.08 ± 0.18
GCCAGCGTCC	1.62 ± 0.83
TCACTTATAA	1.02 ± 0.018
GATAGGGGGA	0.984 ± 0.058
TTATCATTC	1.01 ± 0.019
GCTGATACGG	1.07 ± 0.027
AATGGGGGTG	1.02 ± 0.032
CCATTGTGTG	0.98955 ± 0.00067
AGGGAGAAAC	0.984 ± 0.028
TTTTTTTCAA	1.01 ± 0.02
TCAAATAGGC	1.016 ± 0.01
TCACAGATGG	1.02 ± 0.036
GTTCAAGGAA	0.9937 ± 0.0036
TGGGTAGGAA	1.0335 ± 0.00064
GGTTTGGGTG	0.995 ± 0.04
AGCAGTGACT	1.13 ± 0.036
GAGGTTTCAC	0.965 ± 0.023
TGTGAGCCTG	0.98 ± 0.092
GGCGACACGT	1.03 ± 0.023
AATACATGTA	0.984 ± 0.013
CCATCTAGTT	0.9681 ± 0.0047

Sequence	switch fluorescence ratio
TTCACTGGTC	1.019 ± 0.0011
TAAACCGTGG	1.02 ± 0.024
AGAAAATTCG	0.981 ± 0.024
TTGGGGAGGA	0.998 ± 0.044
TATAAGGCGC	0.949 ± 0.032
AGTTTGGGCA	0.975 ± 0.029
GAAATAAAAG	0.9796 ± 0.0064
CAAAAAGGCG	1.03 ± 0.054
GGCTAGCCTA	1.01 ± 0.013
TCCTTGTAAG	1.01 ± 0.03
GGATGAGGGC	0.993 ± 0.0099
AATATATGT	1.02 ± 0.023
TGTGGGGACC	1.05 ± 0.05
AACTGCAAGT	0.993 ± 0.027
TACAAAATGG	0.997 ± 0.012
TTTGGGTTAA	1.13 ± 0.29
GATTCGGGGA	0.999 ± 0.014
ATTTTTGCGT	1.01 ± 0.041
ATATGTTTTT	0.996 ± 0.018
TAAGTGGAAG	1.01 ± 0.029
CAAAATACGG	1.07 ± 0.052
GAGGGATGGT	1.01 ± 0.029
GCAAAAGGGA	1.01 ± 0.013

Sequence	switch fluorescence ratio
CTTTCTTTGG	0.99 ± 0.018
TATTCGTTTT	0.989 ± 0.011
CACAATATGT	1.07 ± 0.078
GTGGGGGGGC	0.989 ± 0.032
ATCTTTTTGG	0.996 ± 0.024
AGCTTCAAAT	1 ± 0.017
AAGAAAAAGG	0.993 ± 0.036
GGGTGATTGC	0.964 ± 0.011
CGGGTCCATT	0.981 ± 0.0079
ACATGGTTTT	1.01 ± 0.017
CCTTGGGTTT	1.08 ± 0.13
CTGATCTGTT	0.998 ± 0.024
CGGTAAATGT	1.05 ± 0.071
TTATCCTTCA	1.27 ± 0.36
CTGACTCCAA	2.94 ± 1.6
AGAATTGAGG	0.979 ± 0.016
GCCTATGCGG	1.01 ± 0.0033
GTACCTATCG	1.01 ± 0.03
TAAAGGGAGC	1.12 ± 0.19
TAATGGGCGT	1 ± 0.012
GTAGCTGCGG	1.02 ± 0.038
GAGGTTAGGA	1 ± 0.012
TTTTAAGCTG	1.05 ± 0.024

Sequence	switch fluorescence ratio
CCCGGGGGTT	1.14 ± 0.13
CCAACAGGTT	1.69 ± 0.079
GGTTTATGTT	1 ± 0.019
TTTGGGACAG	0.981 ± 0.031
TTCAGCGGGT	0.983 ± 0.025
AGTGGGAGTT	1.002 ± 0.0081
TAATGGCTT	1.003 ± 0.0022
GAGTACTCGT	1.03 ± 0.034
GCTGGTTTCG	1.033 ± 0.0054
TTTGGTTGGG	1.03 ± 0.098
GTCGGGGAGG	1.04 ± 0.031
GGGTGGTCAG	1.01 ± 0.023
AAGTATAGGT	1.03 ± 0.017
GTGGCTAATT	1 ± 0.015
GCCGGGAGGG	0.985 ± 0.025
AGAGTTGTTT	0.997 ± 0.015
AAAAGGACGT	0.962 ± 0.0056
TAAGCTTTTG	1.025 ± 0.0084
AGAAGGCGGC	1 ± 0.023
